Measurements from patent publication US12509503B2, “Pan-neuraminidase inhibiting antibodies” (Washington University, priority 2019, dated 2025).

What was measured:
[1] = test system: influenza A group 1 and group 2 NAs; assay: Enzyme-linked lectin assay (ELLA) neuraminidase inhibition, influenza A NAs; assay type: biochemical, influenza A virus; settings: for neuraminidase inhibition (NI) in ELLA: fetuin substrate, subtypes inhibited are named in the value
Experimental: Ninety six-well microtiter plates (Thermo Fisher) were coated with 100 μL/well fetuin (Sigma) at a concentration of 25 μg/mL in 1× coating buffer (KPL coating solution; SeraCare) at 4° C. overnight. The next day, the plates were washed three times with T-PBS and blocked in 200 μL blocking buffer (5% bovine serum albumin (BSA, Biomedicals) in PBS) at room temperature. On a separate 96-well plate virus was serially diluted 1:2 in PBS. Seventy-five μL of PBS was added to all wells and the plates incubated for 1.5 h on a shaker at room temperature. After blocking, the plates were washed three times with T-PBS, 100 μL of serially diluted virus was transferred well by well to the fetuin coated plates and the plates were incubated for 2 hours at 33° C. or 37° C. depending on the virus type. The plates were washed four times and 100 μL peanut agglutinin (PNA) conjugated to HRP at a concentration of 5 μg/mL was added to all wells. The plates were incubated in the dark for two hours, the plates washed four times and developed with 100 μL SigmaFast OPD. The reaction was stopped after 5 min with 50 μL 3M hydrochloric acid (Thermo Fisher) and the plates were read at a wavelength of 490 nm with a microtiter plate reader (Bio-Tek). The data were analyzed in Microsoft Excel and GraphPad Prism 7, and the 50% effective concentration (EC50) was calculated for each virus.
To perform neuraminidase inhibition assays, the microtiter plates were coated and blocked as described above. During the blocking of the fetuin coated plates the mAbs were diluted to a starting concentration of 30 μg/mL and serially diluted 1:2 in PBS in a separate 96-well plate. Seventy-five μL of virus diluted to 2× effective concentration 50 (EC50) was added to wells of the serially diluted mAbs and incubated for 1.5 h on a shaker. The fetuin coated plates were washed three times with T-PBS and the virus/mAb mixture was added to the plates and incubated for 2 hours at 33° C. or 37° C. The remainder of the assay was performed as described above. The data were analyzed in Microsoft Excel and GraphPad Prism 7, and the inhibitory concentration 50 (IC50) was calculated.

[2] = test system: recombinant N2 NA; assay type: binding, influenza A virus
[3] = test system: recombinant NA, group 1 NAs (N1, N4, N5 and N8) and group 2 NAs (N2, N3, N6, N7 and N9); assay type: binding, influenza A virus
[4] = test system: challenge viruses expressing N1, N2, N3, N5, N6, N7, N8, N9 NAs and influenza B virus NA; set-up: species or system mice; settings: mouse, in vivo
[5] = test system: virus expressing a group 1 neuraminidase (N4); set-up: species or system mice; settings: mouse, in vivo

Molecule | neuraminidase inhibition (NI) in ELLA [1] | binding to N2 NA [2] | binding / cross-reactivity to recombinant influenza A NA subtypes in ELISA [3] | protection against weight loss [4] | protection from lethality [4] | weight loss [5] | NA inhibition in ELLA ([1]; H3N2 strain A/Hong Kong/4801/2014)
1G04: human anti-NA monoclonal antibody expressed as IgG1; heavy chain variable region SEQ ID NO: 40, light chain variable region SEQ ID NO: 41 (antibody, listed as Homo sapiens, V domains shown, IgG1 constant regions) VH: EVQLVESGGRVVRPGGSLRLSCAASGFTFDDYGMSWVRQAPGKGLEFVSGLNWNGDITAFTDSVKGRFTISRDNAKSSLYLQMNSLRADDTAFYYCARVRTWGEYTTREEPIHSWYFDLWGRGTLVTVSS VL: DIQLTQSPSFLSASVGDRVTITCRASQDISSFLAWYQQKPGNAPKVLIYAASLLQSGVPSRFSGSGSGTDFTLTISSLQPEDFATYYCQQLNSYPLFTFGPGTKVDIK | inhibited N2, N3 and certain N1 NAs | bound | some cross-reactivity to N3 and N6 (group 2), and N1, N5 and N8 (group 1) | – | – | – | –
1E01: human anti-NA monoclonal antibody expressed as IgG1; heavy chain variable region SEQ ID NO: 42, light chain variable region SEQ ID NO: 43 (antibody, listed as Homo sapiens, V domains shown, IgG1 constant regions) VH: EVQLVESGGRVVRPGGSLRLSCAASGFTFDDYGMSWVRQPPGKGLEFVSGLNWNGDITAFTDSVKGRFTISRDNVKSSLYLQMNSLRADDTAFYYCARVRTWGDYTTGEEIINSWYFDLWGRGTLVTVSS VL: DIQLTQSPSFLSASVGDRVTITCRASQDISSYLAWYQQKPGNAPKLLIYAASLLQSGVPSRFSAFGSGTEFTLTISSLQPEDFATYYCQHLKSYPLFTFGPGTKVDIK | inhibited group 2 NAs, N1 | bound | even broader binding pattern that included group 2 NAs N3, N6, N7 and N9, group 1 NAs N1, N5 and N8 | – | – | – | –
1G01: human anti-NA monoclonal antibody expressed as IgG1; heavy chain variable region SEQ ID NO: 44, light chain variable region SEQ ID NO: 45 (antibody, listed as Homo sapiens, V domains shown, IgG1 constant regions) VH: EVQLVESGGRALRPGGSLRLSCAASGFKFDDYAMSWVRQVPGKGLEFVSGLNWNGDITAYTDSVKGRFTVSRDNAKNSLYLHINSPKPEDTALYYCARTSSWGDYTRGPEPKITWYFDLWGRGTLVTVSS VL: DIQLTQSPSFLSASVGDRITITCRASQGIDGYLAWYQQRPGKAPNLLIYAASLLQSGVPSRFSGSGYGTEFTLTISSLQPEDFATYYCQHLDSYPLFTFGPGTKVDIK | inhibited the activity of all A/group 2 and group 1 NAs | bound | broadest binding activity that covered all group 1 NAs (N1, N4, N5 and N8) and group 2 NAs (N2, N3, N6, N7 and N9) | solid protection against weight loss | full protection from lethality | some transient weight loss | –
1G01 Fab: antigen-binding fragment (Fab) of 1G01 used instead of the full antibody (antibody, left off: a dimerising Fc or GST) heavy: EVQLVESGGRALRPGGSLRLSCAASGFKFDDYAMSWVRQVPGKGLEFVSGLNWNGDITAYTDSVKGRFTVSRDNAKNSLYLHINSPKPEDTALYYCARTSSWGDYTRGPEPKITWYFDLWGRGTLVTVSS light: DIQLTQSPSFLSASVGDRITITCRASQGIDGYLAWYQQRPGKAPNLLIYAASLLQSGVPSRFSGSGYGTEFTLTISSLQPEDFATYYCQHLDSYPLFTFGPGTKVDIK | – | – | – | – | – | – | potent inhibition
